Target: T1, activated C1s–CCP1–CCP2–SP (human, UniProt P09871 292-688)
T1 construct: human complement C1s, C-terminal domains CCP1, CCP2 and serine protease (SP); Cleaved by C1r into two chains (confirmed by reducing SDS-PAGE); Tag removal is inferred: only the c-Myc S632A form 'was not subjected to His-TEV cleavage'; also called wildtype C1s–CCP1–CCP2–SP
T1 sequence: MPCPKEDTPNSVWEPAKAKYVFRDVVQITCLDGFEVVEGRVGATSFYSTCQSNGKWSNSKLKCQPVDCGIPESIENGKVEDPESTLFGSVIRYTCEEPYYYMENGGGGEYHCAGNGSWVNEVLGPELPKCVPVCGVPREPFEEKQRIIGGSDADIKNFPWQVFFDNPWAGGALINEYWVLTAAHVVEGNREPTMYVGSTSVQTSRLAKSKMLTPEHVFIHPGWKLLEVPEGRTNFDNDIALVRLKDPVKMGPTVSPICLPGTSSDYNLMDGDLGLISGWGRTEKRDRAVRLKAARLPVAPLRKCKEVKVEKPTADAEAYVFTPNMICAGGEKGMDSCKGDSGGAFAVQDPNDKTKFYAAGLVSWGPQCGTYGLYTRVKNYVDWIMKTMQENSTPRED
Assay: SPR; Elp truncation amine-coupled to a CMD200 chip; multicycle twofold injection series of C1s enzyme or activated C1s–CCP1–CCP2–SP constructs from 200 nM; HBS-T Ca2+ (10 mM Hepes pH 7.3, 140 mM NaCl, 0.005% Tween-20, 5 mM CaCl2), 30 ul/min; K_(D, kin) from a kinetic and K_(D, ss) from a steady-state 1:1 (Langmuir) fit; triplicate
Settings: both partners purified

B1: ElpB_(182–378) (domain or fragment)
chain: QERKAKAEKEAKEKAERQKQEEQQKRKAEKEREEQRKEAEKRQVDNEIRTLTGKIDEINRNIDVIKEQTSVGAQGVIDRITGPVYDDFTDGNKAIYKTWGDLEDDNDEGLGKLLKELSDTRHNLRTKLNEGNKAYIIDTRSTEPQLKENVSVSEIKSDLDELKSKLEEVKEYLEDKDNFEEIKEYVAGSEDNYDEED
notes: ElpB (ErpB) of B. burgdorferi, residues 182-378; also called C-terminal domain of ElpB; not shown: His6 (from the vector pT7HMT), N-terminal, cleaved; c-Myc (from the vector pT7HMT), N-terminal, cleaved
  Kd: 360 ± 17 nM
